In US20190225665A1 (Stanford University, published 2019):
Residue numbers refer to the chain shown, from its start.

T1: wild-type IFN-λ3/IFN-λR1 binary complex (human, UniProt Q8IU57 21-228, limits assumed)
T1 construct: Complex of m1 and m3; In SPR it was the immobilized binary complex; also called IFN-λ/IFN-λR1 binary complex; wild-type IFN-λR1/IFN-λ3
T1 sequence 1: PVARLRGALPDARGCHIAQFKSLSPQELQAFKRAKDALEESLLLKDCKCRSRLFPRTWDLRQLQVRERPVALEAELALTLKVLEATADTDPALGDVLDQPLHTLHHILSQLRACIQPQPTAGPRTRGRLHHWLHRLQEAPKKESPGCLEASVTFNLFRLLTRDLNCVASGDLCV
T1 sequence 2: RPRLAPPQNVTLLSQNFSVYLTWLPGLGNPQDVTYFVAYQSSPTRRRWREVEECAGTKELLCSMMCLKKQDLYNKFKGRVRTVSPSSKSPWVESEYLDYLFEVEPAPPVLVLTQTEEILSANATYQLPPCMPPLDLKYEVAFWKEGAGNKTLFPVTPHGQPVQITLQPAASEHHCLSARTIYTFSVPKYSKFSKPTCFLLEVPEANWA

T2: H11/IFN-λR1 binary complex (human, UniProt Q8IU57 21-228, limits assumed)
T2 construct: Complex of m2 and m3, immobilized for SPR; also called IFN-λ3 H11/IFN-λR1 binary complex; H11-containing binary complex
T2 sequence 1: T1 sequence 1 with Q26R, E84D, H131R, T161A, V174E
T2 sequence 2: T1 sequence 2

T3: IFNλR1/IFNAR1 receptor dimer (on Hap1 cells) (UniProt Q8IU57 21-520; P17181 28-557, limits assumed)
T3 sequence (looked up) 1: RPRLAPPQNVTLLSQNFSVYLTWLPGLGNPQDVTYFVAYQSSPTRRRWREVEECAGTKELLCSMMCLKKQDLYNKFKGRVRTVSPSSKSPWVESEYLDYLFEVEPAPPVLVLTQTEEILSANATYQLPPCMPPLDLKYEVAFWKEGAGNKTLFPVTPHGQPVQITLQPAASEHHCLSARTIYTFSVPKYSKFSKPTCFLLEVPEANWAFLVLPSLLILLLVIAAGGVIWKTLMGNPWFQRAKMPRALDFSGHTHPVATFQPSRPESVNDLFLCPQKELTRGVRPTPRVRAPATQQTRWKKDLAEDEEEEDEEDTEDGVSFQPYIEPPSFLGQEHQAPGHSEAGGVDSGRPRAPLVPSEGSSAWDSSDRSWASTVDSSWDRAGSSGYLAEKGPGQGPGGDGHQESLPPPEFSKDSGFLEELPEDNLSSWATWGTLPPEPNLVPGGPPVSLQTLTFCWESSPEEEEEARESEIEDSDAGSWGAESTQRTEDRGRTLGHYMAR
T3 sequence (looked up) 2: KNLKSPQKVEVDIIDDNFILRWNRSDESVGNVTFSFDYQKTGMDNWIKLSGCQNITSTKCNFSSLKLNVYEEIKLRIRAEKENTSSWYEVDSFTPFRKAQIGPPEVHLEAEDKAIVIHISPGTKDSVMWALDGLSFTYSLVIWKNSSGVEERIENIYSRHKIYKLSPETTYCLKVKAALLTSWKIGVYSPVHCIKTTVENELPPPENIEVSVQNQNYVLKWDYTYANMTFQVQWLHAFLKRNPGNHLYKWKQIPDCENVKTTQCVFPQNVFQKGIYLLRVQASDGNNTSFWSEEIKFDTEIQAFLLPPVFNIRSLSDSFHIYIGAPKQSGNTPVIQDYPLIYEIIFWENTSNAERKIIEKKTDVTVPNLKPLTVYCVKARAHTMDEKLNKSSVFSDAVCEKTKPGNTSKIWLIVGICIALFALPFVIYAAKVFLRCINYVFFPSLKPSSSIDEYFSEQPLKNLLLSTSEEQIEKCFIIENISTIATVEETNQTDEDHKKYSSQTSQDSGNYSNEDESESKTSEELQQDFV

T4: IFN-λR1 (human, UniProt Q8IU57 21-228, limits assumed)
T4 construct: Soluble receptor expressed in Hi5 insect cells; It was captured on a Biotin CAP chip for SPR and used as streptavidin tetramers or soluble protein in the yeast assays; For crystallography it was expressed in HEK293 GnTI- cells and deglycosylated with EndoF and EndoH; also called IL-28RA; IFNλ Receptor 1
T4 sequence (looked up): T1 sequence 2

T5: heterodimeric receptor composed of IL-10Rβ and IFN-λR1 (on cells) (human, UniProt Q8IU57 21-520; Q08334 20-325)
T5 sequence (looked up) 1: T3 sequence (looked up) 1
T5 sequence (looked up) 2: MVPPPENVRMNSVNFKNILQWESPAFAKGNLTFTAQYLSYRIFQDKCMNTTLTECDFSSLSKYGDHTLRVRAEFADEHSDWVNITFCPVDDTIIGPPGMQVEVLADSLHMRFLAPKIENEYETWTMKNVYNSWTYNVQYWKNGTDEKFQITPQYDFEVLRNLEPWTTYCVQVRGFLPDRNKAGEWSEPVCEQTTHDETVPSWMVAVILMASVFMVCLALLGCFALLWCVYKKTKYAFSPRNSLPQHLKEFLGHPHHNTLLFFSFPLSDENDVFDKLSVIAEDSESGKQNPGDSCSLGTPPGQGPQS

B1: IL-10Rβ (monomer) (receptor, human, UniProt Q08334 20-220, looked up)
chain: MVPPPENVRMNSVNFKNILQWESPAFAKGNLTFTAQYLSYRIFQDKCMNTTLTECDFSSLSKYGDHTLRVRAEFADEHSDWVNITFCPVDDTIIGPPGMQVEVLADSLHMRFLAPKIENEYETWTMKNVYNSWTYNVQYWKNGTDEKFQITPQYDFEVLRNLEPWTTYCVQVRGFLPDRNKAGEWSEPVCEQTTHDETVPS
notes: Soluble receptor expressed in Hi5 insect cells; also called IL-10 Receptor Beta; IL-10R2
B2: Synthekine 2 (designed binder)
chain: ARGCHIAQFKSLSPAELQAFKRAKDALEESLLLKDCKCRSRLFPRTWDLRQLQVRERPVALEAELALTLKVLEATADTDPALGDVLDAPLATLHHILSQLRACIQPQPTAGPRTRGRLHRWLHRLQEAPKKESPGCLEASVTFNLFRLLARDLNCVASGDLCEGSGSGLGCDLPQNHGLLSANTLVLLHQMRRISPFLCAKDARDFRFPQEMVKGSQLQKAHVMSVLHEMLQQIFSLFHTERSSAAWNMTLLDQLHTGLHQQLQHLETCLLQVVGEGESAGAISSPALTLRRYFQGIRVYLKEKKYSDCAWEVVRMEIMASLFLSTNMQERLRSKDRDLGSSAAAHHHHHH
B3: wild-type IFN-λ3 (ligand)
chain: T1 sequence 1
notes: For SPR it was expressed in Hi5 insect cells; also called IL-28B; IFN-λ3 wt
B4: IFN-λ3 H11 (ligand)
chain: T1 sequence 1 with Q26R, E84D, H131R, T161A, V174E
notes: also called engineered IFN-λ3 H11

Key:
[1] = molecular target: T1, wild-type IFN-λ3/IFN-λR1 binary complex; assay: surface plasmon resonance, equilibrium fit; binary complex on the sensor chip, IL-10Rβ as analyte up to 100 uM
Procedure: (§1) KD values were determined by fitting to a first order equilibrium binding model.
(§2) Surface plasmon resonance. GE Biacore T100 was used to measure the KD by either kinetic (type I IFNs) or equilibrium (type III IFNs) methods. Approximately 100 RU of each of the receptors of were captured on a Biotin CAP-chip (GE) including a reference channel of an unrelated cytokine receptor (IL-2Rβ).

[2] = molecular target: T2, H11/IFN-λR1 binary complex; assay: SPR, equilibrium fit, immobilized binary complexes
Procedure: as §1, §2

[3] = molecular target: T2, H11/IFN-λR1 binary complex; assay: SPR, equilibrium fit, immobilized H11/IFN-λR1 binary complex; SPR; IL-10Rβ over the immobilized H11/IFN-λR1 binary complex
Procedure: as §1, §2

[4] = molecular target: T3, IFNλR1/IFNAR1 receptor dimer (on Hap1 …); assay: cell-based or functional assay
IFN-λR1 [5] = molecular target: T4, IFN-λR1; assay: SPR, equilibrium fit; wild-type IFN-λ3 binding IFN-λR1
Procedure: as §1, §2

IFN-λR1 [6] = molecular target: T4, IFN-λR1; assay: yeast surface display titration with IFN-λR1, flow cytometry (FIG. 7B legend gives KD=400 nM)
[7] = molecular target: T6, IL-10Rβ streptavidin tetramers (human, UniProt Q08334 20-220; P22629 37-163); assay: flow cytometry of yeast displaying IFN-λ3, no IFN-λR1 present
T6 construct: Same receptor as m4, multimerised on streptavidin for staining of yeast; also called avidity-enhanced tetrameric form of IL-10Rβ; IL-10Rβ tetramer
Procedure: as §1
(§3) We used yeast surface display as a platform for engineering a higher affinity IFN-λ.

IL-10Rβ (monomer) [8] = molecular target: B1; assay: as above
Procedure: as §1, §3

IFN-λR1 [9] = molecular target: T4, IFN-λR1; assay: SPR, equilibrium fit; H11 (carries Thr150Ala) binding IFN-λR1
Procedure: as §1, §2

IL-10Rβ (monomer) [10] = molecular target: B1; assay: yeast-surface titration with IL-10Rβ (affinity maturation was done with soluble IFN-λR1 bound to the displayed cytokine); on-yeast titration, H11 displayed on yeast; presence of IFN-λR1 not stated for the titration
IFN-λR1 [11] = molecular target: T4, IFN-λR1; assay: SPR, equilibrium fit
Procedure: as §1, §2

[12] = molecular target: T5, heterodimeric receptor composed of …; assay: cell-based or functional assay

T6 sequence (P22629 37-163, one chain of several): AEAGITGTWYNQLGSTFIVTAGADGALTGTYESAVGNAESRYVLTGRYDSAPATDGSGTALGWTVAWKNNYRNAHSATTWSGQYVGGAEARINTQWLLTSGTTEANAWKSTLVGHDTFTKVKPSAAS

## B1
[1]
  Kd: 16000 nM
[2]
  fold increase in IL-10Rβ affinity against the wild-type IFN-λ3/IFN-λR1 binary complex: 30 fold
[3]
  Kd: 560 nM

## B2
[4]
  Emax of phospho-STAT1 activation in Hap1 cells: 2 fold of the signal induced by type III IFNs

## B3
IFN-λR1 [5]
  Kd: 850 nM
IFN-λR1 [6]
  Kd: ~400 nM
[7]
  binding result: no binding
IL-10Rβ (monomer) [8]
  binding result: no binding

## B4
IFN-λR1 [9]
  Kd: 150 nM
IL-10Rβ (monomer) [10]
  Kd: 200 nM
IFN-λR1 [11]
  fold higher affinity against wild-type IFN-λ3: ~5 fold
[12]
  EC50 for phospho-Stat1 on Hap1 cells, fold improvement over wild-type IFN-λ3: 100 fold
  anti-viral potency on Huh7.5 cells infected with HCV, fold over wild-type IFN-λ3: 12 fold
